Data on five sequences can be found in patent publication US20190359951.

Test in all cases: cell_activity
The subject of data set [1] is SCL enhancer TALE-LSD1 fusion (synthetic construct; LSD1 Homo sapiens). The settings on record: K562 ChIP-qPCR vs mCherry; H3K27ac reduced >4-fold; target assigned to #4 by inference.
Data set [2] has as its system TALE #11-LSD1 fusion (ZFPM2 +16 enhancer) (synthetic construct; LSD1 Homo sapiens). As to conditions: K562; histone modification levels reduced at target; expression change not statistically significant; +16 assigned to #11 from coordinates.
Data set [3] has as its system TALE #28-LSD1 fusion (ZFPM2 +45 enhancer) (synthetic construct; LSD1 Homo sapiens). As to conditions: K562; histone modification levels reduced at target; expression change not statistically significant; +45 assigned to #28 from coordinates.
Data set [4] concerns TALE #25-LSD1 fusion (ZFPM2 +10 enhancer) (synthetic construct; LSD1 Homo sapiens). The settings on record: K562 RT-qPCR; TALE #25 without LSD1 had no effect on ZFPM2.
Data set [5] concerns TALE #14-LSD1 fusion (synthetic construct; LSD1 Homo sapiens). As to conditions: K562 3'DGE confirmed by RT-qPCR; #14 identified via cDNA qPCR primer set in Table 2.

Consider “TCCGTGGCTGCCAGTCTG (double strand) [SCL enhancer TALE target (TALE #4, chr1:47,647,018)]”, for which, in data set [1], the activity (fold H3K4me2 reduction) worked out at 3. Turning to “TCCAGTCCCTGGCTCCCATG (double strand) [TALE #11 target chr8:106,347,824]”, the activity (% ZFPM2 expression reduction) in data set [2] is 13.

As to “TAAGTCTACATATAGTATCC (double strand) [TALE #28 target chr8:106,376,850]”, in data set [3], the activity (% ZFPM2 expression reduction) is 22. Turning to “TTAAGCTTCTGAAGTCAG (double strand) [TALE #25 target chr8:106,341,287]”, in data set [4], the activity (fold ZFPM2 expression reduction) turned out to be 2. In the case of “TAGCCGCGAGGAAGGCG (double strand) [TALE #14 target chrX:49,023,709]”, the activity (fold nearby gene down-regulation) in data set [5] was more than 1.5.
